In patent publication US20250277020A1 (Boehringer Ingelheim, published 2025):

T1: Full-length human CTGF (human, UniProt P29279 27-349)
T1 construct: Corresponds to NCBI NP_001892.1 with the signal peptide omitted; purchased from R&D Systems; also called hCTGF full length; full length CTGF
T1 sequence: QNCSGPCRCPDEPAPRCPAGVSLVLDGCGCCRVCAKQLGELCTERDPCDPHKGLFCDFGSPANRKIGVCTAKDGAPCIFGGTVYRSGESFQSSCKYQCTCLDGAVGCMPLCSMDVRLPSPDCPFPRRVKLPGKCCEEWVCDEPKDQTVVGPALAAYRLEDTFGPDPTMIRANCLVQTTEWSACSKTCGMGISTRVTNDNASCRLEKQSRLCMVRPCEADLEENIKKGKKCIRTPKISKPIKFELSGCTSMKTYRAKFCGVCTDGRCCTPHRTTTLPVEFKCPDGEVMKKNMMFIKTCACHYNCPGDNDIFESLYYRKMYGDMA


Target: T1, Full-length human CTGF
Experiment: SPR, full length CTGF

Row | Binder | Kd [nM] | binding result
1 | A45 (antibody, human IgG1, kappa, L234A L235A) light: VVMTQTPLSLSVSLGDQASISCKSSQSIVHYNENTYLEWYLQKPGQSPQLLIYKVSSRASGVPDRFSGSGSGTDFTLKISRVEAEDLGVYYCFQGSHFPLTFGQGTKLEIKRTVAAPSVFIFPPSDEQLKSGTASVVCLLNNFYPREAKVQWKVDNALQSGNSQESVTEQDSKDSTYSLSSTLTLSKADYEKHKVYACEVTHQGLSSPVTKSFNRGEC heavy: not shown |  | no binding
2 | A53 (antibody, human IgG1, kappa, L234A L235A) light: VVMTQTPLSLPVSLGDQASISCRSSQSIVHYNENTYLEWYLQKPGQSPQLLIYKVSNRFSGVPDRFSGSGSGTDFTLKISRVEAEDLGVYYCFQGSHFPLTFGQGTKLEIKRTVAAPSVFIFPPSDEQLKSGTASVVCLLNNFYPREAKVQWKVDNALQSGNSQESVTEQDSKDSTYSLSSTLTLSKADYEKHKVYACEVTHQGLSSPVTKSFNRGEC heavy: not shown | 0.36 | 
3 | A52 (antibody, human IgG1, kappa, L234A L235A, V domains shown) VH: EVQLVESGGGLVQPGGSLRLSCAASGFTFSDYYMAWVRQAPGKGLEWVANINYYGSRTDLLASLKSRFTISRDNAKNSVYLQMNSLRAEDTAVYYCARDTSRGSYFDVWGAGTTVTVSS VL: VVMTQTPLSLPVSLGDQASISCRSSQSIVHYNENTYLEWYLQKPGQSPQLLIYKVSNRFSGVPDRFSGSGSGTDFTLKISRVEAEDLGVYYCFQGSHFPLTFGQGTKLEIKR | 0.27 | 
4 | A49 (antibody, human IgG1, kappa, L234A L235A, V domains shown) VH: EVQLVESGGGLVQPGGSLRLSCAASGFTFSDYYMAWVRQAPGKGLEWVANINYEGSRTDLLESLKSRFTISRDNAKNSVYLQMNSLRAEDTAVYYCARDTSRGSYFDVWGAGTTVTVSS VL: VVMTQTPLSLPVSLGDQASISCRSSQSIVHYNENTYLEWYLQKPGQSPQLLIYKVSNRFSGVPDRFSGSGSGTDFTLKISRVEAEDLGVYYCFQGSHFPLTFGQGTKLEIKR | 0.3 | 
5 | A34 (antibody, human IgG1, kappa, L234A L235A, V domains shown) VH: EVQLVESGGGLVQPGGSLRLSCAASGFTFSDYYMAWVRQAPGKGLEWVANINYYGSRTDLLESLKSRFTISRDNAKNSVYLQMNSLRAEDTAVYYCARDTSRGSYFDVWGAGTTVTVSS VL: VVMTQTPLSLSVSLGDQASISCKSSQSIVHYNENTYLEWYLQKPGQSPQLLIYKVSSRFSGVPDRFSGSGSGTDFTLKISRVEAEDLGVYYCFQGSHFPLTFGQGTKLEIKR |  | no binding
6 | A37 (antibody, human IgG1, kappa, L234A L235A, V domains shown) VH: EVQLVESGGGLVQPGGSLRLSCAASGFTFSDYYMAWVRQAPGKGLEWVANINYDGSRTDLLDSLKSRFTISRDNAKNSVYLQMNSLRAEDTAVYYCARDTSRGSYFDVWGAGTTVTVSS VL: VVMTQTPLSLSVSLGDQASISCKSSQSIVHYNENTYLEWYLQKPGQSPQLLIYKVSSRFSGVPDRFSGSGSGTDFTLKISRVEAEDLGVYYCFQGSHFPLTFGQGTKLEIKR |  | no binding
7 | A35 (antibody, human IgG1, kappa, L234A L235A, V domains shown) VH: EVQLVESGGGLVQPGGSLRLSCAASGFTFSDYYMAWVRQAPGKGLEWVANINYEGSRTDLLASLKSRFTISRDNAKNSVYLQMNSLRAEDTAVYYCARDTSRGSYFDVWGAGTTVTVSS VL: VVMTQTPLSLSVSLGDQASISCKSSQSIVHYNENTYLEWYLQKPGQSPQLLIYKVSSRFSGVPDRFSGSGSGTDFTLKISRVEAEDLGVYYCFQGSHFPLTFGQGTKLEIKR |  | no binding
8 | A50 (antibody, human IgG1, kappa, L234A L235A, V domains shown) VH: EVQLVESGGGLVQPGGSLRLSCAASGFTFSDYYMAWVRQAPGKGLEWVANINYYGSRTDLLESLKSRFTISRDNAKNSVYLQMNSLRAEDTAVYYCARDTSRGSYFDVWGAGTTVTVSS VL: VVMTQTPLSLPVSLGDQASISCRSSQSIVHYNENTYLEWYLQKPGQSPQLLIYKVSNRFSGVPDRFSGSGSGTDFTLKISRVEAEDLGVYYCFQGSHFPLTFGQGTKLEIKR | 0.26 | 
9 | A47 (antibody, human IgG1, kappa, L234A L235A, V domains shown) VH: EVQLVESGGGLVQPGGSLRLSCAASGFTFSDYYMAWVRQAPGKGLEWVANINYDGSRTDLLESLKSRFTISRDNAKNSVYLQMNSLRAEDTAVYYCARDTSRGSYFDVWGAGTTVTVSS VL: VVMTQTPLSLSVSLGDQASISCKSSQSIVHYNENTYLEWYLQKPGQSPQLLIYKVSSRASGVPDRFSGSGSGTDFTLKISRVEAEDLGVYYCFQGSHFPLTFGQGTKLEIKR |  | no binding
10 | A36 (antibody, human IgG1, kappa, L234A L235A, V domains shown) VH: EVQLVESGGGLVQPGGSLRLSCAASGFTFSDYYMAWVRQAPGKGLEWVANINYYGSRTDLLASLKSRFTISRDNAKNSVYLQMNSLRAEDTAVYYCARDTSRGSYFDVWGAGTTVTVSS VL: VVMTQTPLSLSVSLGDQASISCKSSQSIVHYNENTYLEWYLQKPGQSPQLLIYKVSSRFSGVPDRFSGSGSGTDFTLKISRVEAEDLGVYYCFQGSHFPLTFGQGTKLEIKR |  | no binding

Further binders by falling Kd, results first:

Row | Kd [nM] | binding result | Binder
11 | 0.25 |  | A51 (antibody, human IgG1, kappa, L234A L235A, V domains shown) VH: EVQLVESGGGLVQPGGSLRLSCAASGFTFSDYYMAWVRQAPGKGLEWVANINYEGSRTDLLASLKSRFTISRDNAKNSVYLQMNSLRAEDTAVYYCARDTSRGSYFDVWGAGTTVTVSS VL: VVMTQTPLSLPVSLGDQASISCRSSQSIVHYNENTYLEWYLQKPGQSPQLLIYKVSNRFSGVPDRFSGSGSGTDFTLKISRVEAEDLGVYYCFQGSHFPLTFGQGTKLEIKR
12 | 0.23 |  | A48 (antibody, human IgG1, kappa, L234A L235A) light: VVMTQTPLSLSVSLGDQASISCKSSQSIVHYNENTYLEWYLQKPGQSPQLLIYKVSSRASGVPDRFSGSGSGTDFTLKISRVEAEDLGVYYCFQGSHFPLTFGQGTKLEIKRTVAAPSVFIFPPSDEQLKSGTASVVCLLNNFYPREAKVQWKVDNALQSGNSQESVTEQDSKDSTYSLSSTLTLSKADYEKHKVYACEVTHQGLSSPVTKSFNRGEC heavy: not shown
13 | 0.23 |  | A23 (antibody, human IgG1, kappa, L234A L235A, V domains shown) VH: EVQLVESGGGLVQPGGSLRLSCAASGFTFSDYYMAWVRQAPGKGLEWVANINYDGSRTDLLESLKSRFTISRDNAKNSVYLQMNSLRAEDTAVYYCARDTSRGSYFDVWGAGTTVTVSS VL: VVMTQTPLSLSVSLGDQASISCKSSQSIVHYNGKTYLEWYLQKPGQSPQLLIYKVSSRFSGVPDRFSGSGSGTDFTLKISRVEAEDLGVYYCFQGSHFPLTFGQGTKLEIKR
14 | 0.23 |  | A24 (antibody, human IgG1, kappa, L234A L235A) light: VVMTQTPLSLSVSLGDQASISCKSSQSIVHYNGKTYLEWYLQKPGQSPQLLIYKVSSRFSGVPDRFSGSGSGTDFTLKISRVEAEDLGVYYCFQGSHFPLTFGQGTKLEIKRTVAAPSVFIFPPSDEQLKSGTASVVCLLNNFYPREAKVQWKVDNALQSGNSQESVTEQDSKDSTYSLSSTLTLSKADYEKHKVYACEVTHQGLSSPVTKSFNRGEC heavy: not shown
15 | 0.21 |  | A22 (antibody, human IgG1, kappa, L234A L235A, V domains shown) VH: EVQLVESGGGLVQPGGSLRLSCAASGFTFSDYYMAWVRQAPGKGLEWVANINYEGSRTDLLDSLKSRFTISRDNAKNSVYLQMNSLRAEDTAVYYCARDTSRGSYFDVWGAGTTVTVSS VL: VVMTQTPLSLSVSLGDQASISCKSSQSIVHYNGKTYLEWYLQKPGQSPQLLIYKVSSRFSGVPDRFSGSGSGTDFTLKISRVEAEDLGVYYCFQGSHFPLTFGQGTKLEIKR
16 | 0.2 |  | A46 (antibody, human IgG1, kappa, L234A L235A, V domains shown) VH: EVQLVESGGGLVQPGGSLRLSCAASGFTFSDYYMAWVRQAPGKGLEWVANINYEGSRTDLLDSLKSRFTISRDNAKNSVYLQMNSLRAEDTAVYYCARDTSRGSYFDVWGAGTTVTVSS VL: VVMTQTPLSLSVSLGDQASISCKSSQSIVHYNENTYLEWYLQKPGQSPQLLIYKVSSRASGVPDRFSGSGSGTDFTLKISRVEAEDLGVYYCFQGSHFPLTFGQGTKLEIKR
17 | 0.19 |  | A41 (antibody, human IgG1, kappa, L234A L235A, V domains shown) VH: EVQLVESGGGLVQPGGSLRLSCAASGFTFSDYYMAWVRQAPGKGLEWVANINYEGSRTDLLESLKSRFTISRDNAKNSVYLQMNSLRAEDTAVYYCARDTSRGSYFDVWGAGTTVTVSS VL: VVMTQTPLSLSVSLGDQASISCKSSQSIVHYNENTYLEWYLQKPGQSPQLLIYKVSSRASGVPDRFSGSGSGTDFTLKISRVEAEDLGVYYCFQGSHFPLTFGQGTKLEIKR
18 | 0.16 |  | A44 (antibody, human IgG1, kappa, L234A L235A, V domains shown) VH: EVQLVESGGGLVQPGGSLRLSCAASGFTFSDYYMAWVRQAPGKGLEWVANINYYGSRTDLLASLKSRFTISRDNAKNSVYLQMNSLRAEDTAVYYCARDTSRGSYFDVWGAGTTVTVSS VL: VVMTQTPLSLSVSLGDQASISCKSSQSIVHYNENTYLEWYLQKPGQSPQLLIYKVSSRASGVPDRFSGSGSGTDFTLKISRVEAEDLGVYYCFQGSHFPLTFGQGTKLEIKR
19 | 0.15 |  | A42 (antibody, human IgG1, kappa, L234A L235A, V domains shown) VH: EVQLVESGGGLVQPGGSLRLSCAASGFTFSDYYMAWVRQAPGKGLEWVANINYYGSRTDLLESLKSRFTISRDNAKNSVYLQMNSLRAEDTAVYYCARDTSRGSYFDVWGAGTTVTVSS VL: VVMTQTPLSLSVSLGDQASISCKSSQSIVHYNENTYLEWYLQKPGQSPQLLIYKVSSRASGVPDRFSGSGSGTDFTLKISRVEAEDLGVYYCFQGSHFPLTFGQGTKLEIKR
20 | 0.15 |  | A43 (antibody, human IgG1, kappa, L234A L235A, V domains shown) VH: EVQLVESGGGLVQPGGSLRLSCAASGFTFSDYYMAWVRQAPGKGLEWVANINYEGSRTDLLASLKSRFTISRDNAKNSVYLQMNSLRAEDTAVYYCARDTSRGSYFDVWGAGTTVTVSS VL: VVMTQTPLSLSVSLGDQASISCKSSQSIVHYNENTYLEWYLQKPGQSPQLLIYKVSSRASGVPDRFSGSGSGTDFTLKISRVEAEDLGVYYCFQGSHFPLTFGQGTKLEIKR
21 | 0.15 |  | A25 (antibody, human IgG1, kappa, L234A L235A, V domains shown) VH: EVQLVESGGGLVQPGGSLRLSCAASGFTFSDYYMAWVRQAPGKGLEWVANINYEGSRTDLLESLKSRFTISRDNAKNSVYLQMNSLRAEDTAVYYCARDTSRGSYFDVWGAGTTVTVSS VL: VVMTQTPLSLSVSLGDQASISCKSSQSIVHYNGKTYLEWYLQKPGQSPQLLIYKVSSRASGVPDRFSGSGSGTDFTLKISRVEAEDLGVYYCFQGSHFPLTFGQGTKLEIKR
